Like-named read-outs stand apart in the source and are kept apart here. One block for each binder: values may come before it.
Legend:
[1] = target: T1, human PD-L1 protein with histidine tag (NovoProtein, C315) (human, UniProt Q9NZQ7 19-239, limits assumed, biotinylated with EZ-Link Sulfo-NHS-LC-Biotin in the epitope competition experiments (Examples 8 and 20); not biotinylated in the affinity experiments); assay: BLI (Octet), antibody on AHC sensor, antigen 50~1.56 nM, 1:1 global fit
T1 construct: bought reagent; also called biotinylated PD-L1 protein; not shown: histidine tag
T1 sequence (Q9NZQ7 19-239 limits assumed): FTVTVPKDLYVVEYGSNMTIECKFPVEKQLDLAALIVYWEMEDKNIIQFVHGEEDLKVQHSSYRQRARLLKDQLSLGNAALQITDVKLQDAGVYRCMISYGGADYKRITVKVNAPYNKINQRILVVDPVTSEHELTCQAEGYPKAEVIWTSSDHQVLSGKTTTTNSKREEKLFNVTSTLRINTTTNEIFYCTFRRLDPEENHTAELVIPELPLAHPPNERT

[2] = target: T2, cynomolgus PD-L1 on CHO-K1 cells (CHO-K1/cynoPD-L1, Nanjing Genscript, M00573) (cynomolgus, UniProt G7PSE7 19-290); assay: flow cytometry on CHO-K1/cynoPD-L1 cells
T2 construct: also called CHO-K1 cells overexpressing cynomolgus PD-L1
T2 sequence (G7PSE7 entry or part of it limits assumed, one chain of several): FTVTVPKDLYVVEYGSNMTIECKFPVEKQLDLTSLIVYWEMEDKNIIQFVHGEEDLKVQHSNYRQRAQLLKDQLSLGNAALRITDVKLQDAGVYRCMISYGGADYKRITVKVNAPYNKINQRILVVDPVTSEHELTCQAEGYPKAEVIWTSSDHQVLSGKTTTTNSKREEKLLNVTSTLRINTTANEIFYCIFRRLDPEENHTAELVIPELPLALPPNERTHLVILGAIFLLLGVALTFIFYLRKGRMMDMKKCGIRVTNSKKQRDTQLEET
Description: To study the binding activity of the PD-L1 antigen binding proteins to human/cynomolgus PD-L1 in vitro, this example uses the CHOK1 cell line overexpressing human PD-L1 (CHO-K1/hPD-L1, Nanjing Genscript, M00543) or the CHOK1 cell line overexpressing cynomolgus PD-L1 (CHO-K1/cynoPD-L1, Nanjing Genscript, M00573) to perform binding experiments at cellular level. In brief, the PD-L1 cells were digested, and resuspended in F-12K complete medium, and the cell density was adjusted to 1× 10⁶ cells/mL. […] The cells were placed at 4° C., incubated away from light for 1 hr. Then, 100 μL/well of pre-cooled PBS was added to wash cells twice. The cells were centrifuged at 500 g, 4° C. for 5 mins, and the supernatant was discarded. […] 200 μL/well of pre-cooled PBS was added to wash cells twice, and the cells were centrifuged at 500 g, 4° C. for 5 mins, and the supernatant was discarded. Finally, the cells were resuspended with 200 μL/well of pre-cooled PBS. The signal values of fluorescent luminescence were read using BD FACS MAYTOII. The flow cytometer BD FAC MAYTOII was used to read the signal values of fluorescent luminescence, and the software FlowJo v10 (FlowJo, LLC) was used to process and analyze data. The software GraphPad Prism 8 was applied to perform data processing and plotting analysis, and the parameters such as binding curves and EC50 values were obtained by four-parameter non-linear fitting.

[3] = target: T3, Human PD-L1 (Acrobiosystems, PD1-H5229) (human, UniProt Q9NZQ7 19-238); assay: ELISA, coated human PD-L1
T3 construct: bought reagent; also called human PD-L1 protein
T3 sequence (Q9NZQ7 19-238 limits assumed): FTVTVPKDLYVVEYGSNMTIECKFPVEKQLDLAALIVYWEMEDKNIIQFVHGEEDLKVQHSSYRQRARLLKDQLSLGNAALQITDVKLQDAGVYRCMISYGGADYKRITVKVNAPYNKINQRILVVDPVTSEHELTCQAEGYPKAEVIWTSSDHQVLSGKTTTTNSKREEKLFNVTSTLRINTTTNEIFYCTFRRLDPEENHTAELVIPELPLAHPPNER
Protocol: After the liquid was discarded, the PBST buffer (pH 7.4, containing 0.05% tween-20) was used to wash the plate for 3 times. 250 μL of 2% BSA blocking buffer was added, and was incubated at the condition of 37° C. for 1 hr. The blocking buffer was discarded, and the PBST buffer (pH 7.4, containing 0.05% tween-20) was used to wash the plate for 3 times. The antigen binding proteins to be tested, serially diluted 5-fold starting from the concentration of 100 nM, 8 concentration gradients in total, were added at 100 μL per well, and were then incubated at 37° C. for 1 hr. […] After washing with PBST buffer (pH 7.4, containing 0.05% tween-20) for three times, the goat anti-human HRP secondary antibody (Invitrogen, A18805) that was diluted 4000-fold was added, and was incubated away from light at the condition of 37° C. for 1 hr. After washing by PBST buffer (pH 7.4, containing 0.05% tween-20) for three times, 100 μL/well of TMB (Biopanda, TMB-S-003) was added, and was placed away from light at room temperature for about 5 mins; stop solution (BBI life sciences, E661006-0200) was added to each well at 50 μL/well to stop the reaction. The Microplate Reader Enspire (PerkinElemer) was used to detect the absorption values at 450 nm (OD450). The software GraphPad Prism 8 was applied to perform data processing and plotting analysis, the parameters such as binding curves and EC50 values were obtained by four-parameter non-linear fitting.

[4] = target: T4, human PD-L1 on Hep3B cells co-expressing human PD-L1 and OS8 (human, UniProt Q9NZQ7 19-290); assay: cell-based or functional assay
T4 sequence (Q9NZQ7 19-290): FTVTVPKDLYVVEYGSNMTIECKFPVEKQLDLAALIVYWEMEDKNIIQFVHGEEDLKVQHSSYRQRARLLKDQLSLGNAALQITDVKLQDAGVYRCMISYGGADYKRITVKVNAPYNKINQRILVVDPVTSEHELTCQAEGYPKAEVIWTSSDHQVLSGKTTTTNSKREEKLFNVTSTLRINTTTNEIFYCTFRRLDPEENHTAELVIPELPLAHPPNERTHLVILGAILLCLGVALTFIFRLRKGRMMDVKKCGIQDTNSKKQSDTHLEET

[5] = target: T1, human PD-L1 protein with histidine tag …; assay: BLI (Octet), antibody on AHC sensor, antigen 60 nM, 1:1 local fit
Protocol: First, the two AHC sensors placed in a column were equilibrated in the test buffer for 10 mins, and then the AHC sensors were used to capture the antigen binding proteins to be tested with the capture height of 0.9-1.1 nm. Then the AHC sensors were equilibrated in the test buffer for 2 mins. Then the AHC sensors were bound to the antigen (60 nM and 0 nM) for 3 mins, finally were dissociated for 15 mins. The AHC sensors were immersed in a 10 mM glycine (pH 1.5) solution for regeneration to elute the proteins bound to the sensors.
When using Octet Data Analysis software (Fortebio, version 11.0) for data analysis, the single deduction mode (reference well) was selected to deduct the reference signal, the “1:1 Local/full fitting” method was selected for data fitting, and kinetic parameters of the binding of antigens and antibodies were calculated, the kₒₙ (1/Ms) values, kdis (1/s) values and KD (M) values were obtained.

[6] = target: T5, human PD-L1 on CHO-K1 cells (CHO-K1/hPD-L1, Nanjing Genscript, M00543) (human, UniProt Q9NZQ7 19-290); assay: flow cytometry competition: biotin-hPD-1 binding to CHO-K1/hPD-L1 cells
T5 construct: whole, on cells; also called CHO-K1 cells overexpressing human PD-L1; human PD-L1 on the cell surface
T5 sequence (Q9NZQ7 19-290, one chain of several): as the sequence (Q9NZQ7 19-290) above
Protocol: (§1) In brief, the CHO-K1/hPD-L1 cells were digested, and resuspended in F-12K complete medium. The cell density was adjusted to 1× 10⁶ cells/mL. […] Cells were placed at 4° C., and were incubated away from light for 1 hr. Then, the cells were centrifugated at 4° C. for 5 mins, and the supernatant was discarded. […] The cells were washed with 100 μL/well of pre-cooled PBS twice, centrifuged at 500 g, 4° C. for 5 mins, and the supernatant was discarded. […] 200 μL/well of pre-cooled PBS was used to wash cells twice, cells were centrifuged at 500 g, 4° C. for 5 mins, the supernatant was discarded. Finally, 200 μL/well of pre-cooled PBS was used to resuspend cells. The BD FACS MAYTOII was used to read the signal value of fluorescent luminescence. The software GraphPad Prism 8 was applied to perform data processing and plotting analysis, and the parameters such as binding curves and IC50 values were obtained by four-parameter non-linear fitting.

[7] = target: T4, human PD-L1 on Hep3B cells …; assay: cell-based or functional assay; remark: listed apart in the source
[8] = target: T5, human PD-L1 on CHO-K1 cells …; assay: flow cytometry competition: biotin-hPD-1 binding to CHO-K1/hPD-L1 cells; remark: listed apart in the source
Protocol: as §1

[9] = target: T5, human PD-L1 on CHO-K1 cells …; assay: flow cytometry on CHO-K1/hPD-L1 cells
Description: (§2) To study the binding activity of the PD-L1 antigen binding proteins to human/cynomolgus PD-L1 in vitro, this example uses the CHOK1 cell line overexpressing human PD-L1 (CHO-K1/hPD-L1, Nanjing Genscript, M00543) or the CHOK1 cell line overexpressing cynomolgus PD-L1 (CHO-K1/cynoPD-L1, Nanjing Genscript, M00573) to perform binding experiments at cellular level. In brief, the PD-L1 cells were digested, and resuspended in F-12K complete medium, and the cell density was adjusted to 1× 10⁶ cells/mL. […] The cells were placed at 4° C., incubated away from light for 1 hr. Then, 100 μL/well of pre-cooled PBS was added to wash cells twice. The cells were centrifuged at 500 g, 4° C. for 5 mins, and the supernatant was discarded. […] 200 μL/well of pre-cooled PBS was added to wash cells twice, and the cells were centrifuged at 500 g, 4° C. for 5 mins, and the supernatant was discarded. Finally, the cells were resuspended with 200 μL/well of pre-cooled PBS. The signal values of fluorescent luminescence were read using BD FACS MAYTOII. The flow cytometer BD FAC MAYTOII was used to read the signal values of fluorescent luminescence, and the software FlowJo v10 (FlowJo, LLC) was used to process and analyze data. […]

[10] = target: T5, human PD-L1 on CHO-K1 cells …; assay: flow cytometry on CHO-K1/hPD-L1 cells; remark: listed apart in the source
Description: as §2

[11] = target: T5, human PD-L1 on CHO-K1 cells …; assay: flow cytometry competition: biotin-hPD-1 binding to CHO-K1/hPD-L1 cells; remark: listed apart in the source
Protocol: as §1

Kd [1]: 0.106 nM | koff [1]: 7.09e-05 s⁻¹ | kon [1]: 669000 M⁻¹ s⁻¹ | EC50 [2]: 0.451 nM | MFI maximum value [2]: 22600 MFI | EC50 [3]: 0.0373 nM | EC50 (nM), PD-1 / NFAT-luciferase reporter [4]: 0.533 nM | Maximum fluorescence value (RLU) [4]: 50700 RLU | Kd [5]: 0.409 nM | koff [5]: 0.000106 s⁻¹ | kon [5]: 260000 M⁻¹ s⁻¹ | IC50 [6]: 0.604 nM | Maximum inhibition rate (%) [6]: 93.6%
B1: PR000265 (antibody, human IgG1, kappa, N297A)
heavy: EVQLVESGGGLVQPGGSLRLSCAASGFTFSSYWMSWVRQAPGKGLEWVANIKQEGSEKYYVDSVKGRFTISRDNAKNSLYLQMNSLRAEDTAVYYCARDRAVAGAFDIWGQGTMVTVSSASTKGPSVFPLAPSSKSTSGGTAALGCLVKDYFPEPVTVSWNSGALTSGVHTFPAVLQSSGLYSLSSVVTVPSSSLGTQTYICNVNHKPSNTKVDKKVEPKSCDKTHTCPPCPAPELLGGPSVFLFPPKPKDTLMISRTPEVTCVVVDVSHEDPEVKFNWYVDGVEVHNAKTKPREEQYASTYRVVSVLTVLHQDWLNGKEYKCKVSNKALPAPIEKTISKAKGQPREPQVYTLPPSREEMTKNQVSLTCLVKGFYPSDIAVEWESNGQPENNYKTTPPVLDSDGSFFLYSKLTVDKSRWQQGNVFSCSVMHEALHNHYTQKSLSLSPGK
light: DIQMTQSPSTLSASVGDRVTVTCRASQSIYIWLAWYQQKPGKAPNLLIYKASSLETGVPSRFSGSGSGTEFTLTISSLQPDDFATYYCQQYYGSSRTFGQGTKVEIKRTVAAPSVFIFPPSDEQLKSGTASVVCLLNNFYPREAKVQWKVDNALQSGNSQESVTEQDSKDSTYSLSSTLTLSKADYEKHKVYACEVTHQGLSSPVTKSFNRGEC
notes: heavy chain human IgG1 (N297A)

EC50 (nM), PD-1 reporter gene cell line [7]: 0.077 nM | Maximum fluorescence value (RLU) [7]: 3660 RLU | IC50 [8]: 0.19 nM | EC50 [9]: 0.259 nM | MFI maximum value [9]: 40400 MFI | EC50 [10]: 0.231 nM | MFI maximum value [10]: 37900 MFI | IC50 [11]: 0.127 nM
B2: PR000416 (antibody, human IgG1, kappa)
heavy: not shown
light: B1 light
notes: PR000265 with the heavy chain constant region replaced by the human IgG1 constant region without mutation; also called Fc-type switching of PR000265
